Measured values published in article doi:10.1101/476960.
Read-outs that look alike come from different tables or passages of the source.

Experiments:
Ago2 [1] = molecular target: T1, Ago2 (Homo sapiens, UniProt Q9UKV8 1-859); assay: filter binding
Ago2 [2] = molecular target: T1, Ago2; assay: filter binding; remark: listed apart in the source
Ago2 D669A = Ago2 D669A (Homo sapiens, UniProt Q9UKV8 1-859, D669A); assay: X-ray crystallography
Ago2 [3] = molecular target: T1, Ago2; assay: filter binding; remark: listed apart in the source

T1 sequence (Q9UKV8 whole entry): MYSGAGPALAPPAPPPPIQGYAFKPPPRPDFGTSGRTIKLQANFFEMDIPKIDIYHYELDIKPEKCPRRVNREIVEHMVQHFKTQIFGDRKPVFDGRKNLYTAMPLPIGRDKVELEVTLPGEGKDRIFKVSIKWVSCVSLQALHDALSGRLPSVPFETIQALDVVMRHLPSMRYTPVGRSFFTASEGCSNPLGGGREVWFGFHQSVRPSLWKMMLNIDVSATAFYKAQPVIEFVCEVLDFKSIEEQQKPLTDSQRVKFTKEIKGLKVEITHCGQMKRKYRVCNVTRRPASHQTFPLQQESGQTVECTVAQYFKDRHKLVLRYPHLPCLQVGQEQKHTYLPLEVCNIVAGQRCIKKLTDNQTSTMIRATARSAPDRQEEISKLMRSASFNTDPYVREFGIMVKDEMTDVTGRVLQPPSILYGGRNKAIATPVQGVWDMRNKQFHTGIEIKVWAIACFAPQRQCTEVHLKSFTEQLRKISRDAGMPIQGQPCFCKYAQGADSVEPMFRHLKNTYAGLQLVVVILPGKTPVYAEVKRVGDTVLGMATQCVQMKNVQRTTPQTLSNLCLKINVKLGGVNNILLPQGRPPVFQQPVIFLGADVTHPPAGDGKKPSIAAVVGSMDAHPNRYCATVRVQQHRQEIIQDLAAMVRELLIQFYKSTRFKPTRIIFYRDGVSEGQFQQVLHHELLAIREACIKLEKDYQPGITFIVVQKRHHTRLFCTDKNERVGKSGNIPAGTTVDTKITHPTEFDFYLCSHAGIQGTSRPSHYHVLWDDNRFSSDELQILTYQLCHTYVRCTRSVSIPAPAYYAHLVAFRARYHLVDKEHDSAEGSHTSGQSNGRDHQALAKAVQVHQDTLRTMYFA
Ago2 D669A, sequence (Q9UKV8 whole entry D669A): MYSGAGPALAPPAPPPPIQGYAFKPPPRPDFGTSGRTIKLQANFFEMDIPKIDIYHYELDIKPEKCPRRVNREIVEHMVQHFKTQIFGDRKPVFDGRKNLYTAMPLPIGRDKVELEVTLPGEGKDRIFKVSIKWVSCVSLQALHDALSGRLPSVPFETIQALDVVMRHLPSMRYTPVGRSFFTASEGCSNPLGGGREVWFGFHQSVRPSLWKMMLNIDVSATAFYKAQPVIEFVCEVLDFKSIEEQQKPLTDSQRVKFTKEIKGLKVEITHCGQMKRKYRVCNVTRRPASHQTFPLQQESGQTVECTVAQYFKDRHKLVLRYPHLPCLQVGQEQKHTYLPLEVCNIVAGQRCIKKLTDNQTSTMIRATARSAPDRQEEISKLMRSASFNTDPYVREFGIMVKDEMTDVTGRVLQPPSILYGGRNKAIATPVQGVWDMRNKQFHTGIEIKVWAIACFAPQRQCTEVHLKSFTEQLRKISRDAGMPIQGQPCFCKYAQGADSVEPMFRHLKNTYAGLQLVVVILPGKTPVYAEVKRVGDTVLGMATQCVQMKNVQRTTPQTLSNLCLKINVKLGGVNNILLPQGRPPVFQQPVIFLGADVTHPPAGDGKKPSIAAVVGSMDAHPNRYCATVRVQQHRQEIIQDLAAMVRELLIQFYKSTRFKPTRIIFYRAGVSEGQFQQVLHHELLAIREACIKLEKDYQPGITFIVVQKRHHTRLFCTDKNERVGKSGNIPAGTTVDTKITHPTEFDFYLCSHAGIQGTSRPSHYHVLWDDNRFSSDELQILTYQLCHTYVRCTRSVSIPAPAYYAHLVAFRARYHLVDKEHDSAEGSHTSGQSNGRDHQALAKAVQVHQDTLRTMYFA

B1: EV2 guide / g13-g14 target (mixed)
RNA 1: UGGAGUGUGACACCGGCGAAAG
RNA 2: GGCAAAACACUCCUAA
modifications: 5' phosphate on guide
- binding signal (Ago2 [1]): > 3.5 fold affinity vs seed-only N13

B2: weak-sup miR-122 / 10 nt bridge (mixed)
RNA 1: UGGAGUGUGACACUAUCGAAAG
RNA 2: AUAGAAAAAAAAAAACACUCCUAA
modifications: 5' phosphate on guide
- binding signal (Ago2 [2]): 1.9 fold affinity vs seed-only N2

B3: miR-122 21mer / 2-16 perfect target (mixed)
RNA 1: UGGAGUGUGACAAUGGUGUUU
RNA 2: CCAUUGUCACACUCCAAA
modifications: 5' phosphate on guide
- binding result (Ago2 D669A): binds

B4: strong-sup miR-122 / 1 nt bridge (mixed)
RNA 1: UGGAGUGUGACAGCGGCGAAAG
RNA 2: CCGCAACACUCCUAA
modifications: 5' phosphate on guide
- binding signal (Ago2 [3]): > 10 fold affinity vs seed-only N7

B5: strong-sup miR-122 / 2 nt bridge (mixed)
RNA 1: UGGAGUGUGACAGCGGCGAAAG
RNA 2: CCGCAAACACUCCUAA
modifications: 5' phosphate on guide
- binding signal (Ago2 [3]): > 20 fold affinity vs seed-only N7

B6: strong-sup miR-122 / 4 nt bridge (mixed)
RNA 1: UGGAGUGUGACAGCGGCGAAAG
RNA 2: CCGCAAAAACACUCCUAA
modifications: 5' phosphate on guide
- binding signal (Ago2 [3]): > 20 fold affinity vs seed-only N7

B7: strong-sup miR-122 / 15 nt bridge (mixed)
RNA 1: UGGAGUGUGACAGCGGCGAAAG
RNA 2: CCGCAAAAAAAAAAAAAAAACACUCCUAA
modifications: 5' phosphate on guide
- binding signal (Ago2 [3]): > 10 fold affinity vs seed-only N7

B8: weak-sup miR-122 / 4 nt bridge (mixed)
RNA 1: UGGAGUGUGACACUAUCGAAAG
RNA 2: AUAGAAAAACACUCCUAA
modifications: 5' phosphate on guide
- binding signal (Ago2 [2]): > 10 fold affinity vs seed-only N2
